Measured values: IntAct's records for PubMed 9697699

B1: Serine hydrolase RBBP9 (Rattus norvegicus (Rat)), O88350 (parent)
chain: MASPTKAVIVPGNGGGDVATHGWYGWVRKGLEQIPGFQCLAKNMPDPITARESIWLPFMETELHCDEKTIIIGHSSGAIAAMRYAETHQVYALILVSAYTSDLGDENERASGYFSRPWQWEKIKANCPHIIQFGSTDDPFLPWKEQQEVADRLDAKLYKFTDRGHFQNTEFHELIRVVKSMLTPAL
partner: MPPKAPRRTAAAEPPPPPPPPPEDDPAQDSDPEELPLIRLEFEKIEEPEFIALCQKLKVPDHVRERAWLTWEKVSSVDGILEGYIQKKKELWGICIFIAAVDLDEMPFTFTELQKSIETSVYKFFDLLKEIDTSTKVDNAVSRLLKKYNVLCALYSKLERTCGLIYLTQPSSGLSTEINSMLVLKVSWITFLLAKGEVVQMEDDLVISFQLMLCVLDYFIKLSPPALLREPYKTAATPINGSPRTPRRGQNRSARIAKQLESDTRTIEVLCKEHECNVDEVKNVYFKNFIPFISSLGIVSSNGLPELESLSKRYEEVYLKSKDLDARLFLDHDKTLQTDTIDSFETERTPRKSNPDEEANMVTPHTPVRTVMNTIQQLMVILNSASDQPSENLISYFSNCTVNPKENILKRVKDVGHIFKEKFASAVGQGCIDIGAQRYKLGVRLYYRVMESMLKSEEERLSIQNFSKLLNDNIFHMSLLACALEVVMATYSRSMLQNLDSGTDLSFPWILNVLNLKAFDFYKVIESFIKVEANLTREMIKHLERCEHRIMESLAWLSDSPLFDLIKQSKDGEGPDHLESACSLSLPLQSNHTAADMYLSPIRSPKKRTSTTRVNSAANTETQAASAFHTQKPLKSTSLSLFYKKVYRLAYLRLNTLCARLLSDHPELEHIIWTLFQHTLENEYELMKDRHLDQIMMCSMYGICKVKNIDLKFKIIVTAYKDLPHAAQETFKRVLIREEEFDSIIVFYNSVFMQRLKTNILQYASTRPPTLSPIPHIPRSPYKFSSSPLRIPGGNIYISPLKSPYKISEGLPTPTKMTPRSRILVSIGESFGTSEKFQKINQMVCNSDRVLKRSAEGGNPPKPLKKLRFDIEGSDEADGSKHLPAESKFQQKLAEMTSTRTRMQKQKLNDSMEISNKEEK

Variants of: B1
Conditions: with rb_rat Rb1, P33568

| effect of a mutation on the interaction | Variant |
| --- | --- |
| disrupting interaction | L63E |
